Data: patent publication US20040265963

Biological target: T1, Tkip (tyrosine kinase inhibitor peptide), WLVFFVIFYFFR
T1 chain: WLVFFVIFYFFR

B1: Recombinant human JAK2 immobilized on agarose beads (protein)
chain: MGMACLTMTEMEGTSTSSIYQNGDISGNANSMKQIDPVLQVYLYHSLGKSEADYLTFPSGEYVAEEICIAASKACGITPVYHNMFALMSETERIWYPPNHVFHIDESTRHNVLYRIRFYFPRWYCSGSNRAYRHGISRGAEAPLLDDFVMSYLFAQWRHDFVHGWIKVPVTHETQEECLGMAVLDMMRIAKENDQTPLAIYNSISYKTFLPKCIRAKIQDYHILTRKRIRYRFRRFIQQFSQCKATARNLKLKYLINLETLQSAFYTEKFEVKEPGSGPSGEEIFATIIITGNGGIQWSRGKHKESETLTEQDLQLYCDFPNIIDVSIKQANQEGSNESRVVTIHKQDGKNLEIELSSLREALSFVSLIDGYYRLTADAHHYLCKEVAPPAVLENIQSNCHGPISMDFAISKLKKAGNQTGLYVLRCSPKDFNKYFLTFAVERENVIEYKHCLITKNENEEYNLSGTKKNFSSLKDLLNCYQMETVRSDNIIFQFTKCCPPKPKDKSNLLVFRTNGVSDVPTSPTLQRPTHMNQMVFHKIRNEDLIFNESLGQGTFTKIFKGVRREVGDYGQLHETEVLLKVLDKAHRNYSESFFEAASMMSKLSHKHLVLNYGVCVCGDENILVQEFVKFGSLDTYLKKNKNCINILWKLEVAKQLAWAMHFLEENTLIHGNVCAKNILLIREEDRKTGNPPFIKLSDPGISITVLPKDILQERIPWVPPECIENPKNLNLATDKWSFGTTLWEICSGGDKPLSALDSQRKLQFYEDRHQLPAPKWAELANLINNCMDYEPDFRPSFRAIIRDLNSLFTPDYELLTENDMLPNMRIGALGFSGAFEDRDPTQFEERHLKFLQQLGKGNFGSVEMCRYDPLQDNTGEVVAVKKLQHSTEEHLRDFEREIEILKSLQHDNIVKYKGVCYSAGRRNLKLIMEYLPYGSLRDYLQKHKERIDHIKLLQYTSQICKGMEYLGTKRYIHRDLATRNILVENENRVKIGDFGLTKVLPQDKEYYKVKEPGESPIFWYAPESLTESKFSVASDVWSFGVVLYELFTYIEKSKSPPAEFMRMIGNDKQGQMIVFHLIELLKNNGRLPRPDGCPDEIYMIMTECWNNNVNQRPSFRDLALRVDQIRDNMAG
JAK2 autophosphorylation and JAK2 phosphorylation of IFNGR-1, in vitro kinase assay (32P autoradiography): Tkip at 50 µM inhibited both the autophosphorylation of JAK2 as well as JAK2 phosphorylation of IFNGR-1
